Results reported in patent US20130337438A1 (JAPAN HEALTH SCIENCES FOUNDATION, published 2013).

What was measured:
[1] = target: T1, P56/75 (amino acids 56-75 of HPV16 L2 protein) (human papillomavirus type 16, conjugated with keyhole limpet hemocyanin (KLH) via cysteine); assay: affinity purification on KLH-P56/75 sepharose
T1 construct: Synthetic peptide; It was conjugated with KLH via an added cysteine (KLH-P56/75); also called KLH-P56/75; L2 peptide (56-75)
T1 peptide: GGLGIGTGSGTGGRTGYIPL

HPV31 L1/L2-capsid = target: T2, HPV31 L1/L2-capsid (human papillomavirus type 31, UniProt P17389 1-466; P17388 1-504); assay: ELISA on immobilized L1/L2-capsid, purified antibody 250 ng/well
T2 construct: Capsid of co-expressed L1 and L2 from 293FT cells; The pseudovirus is the same capsid with a reporter plasmid; also called L1/L2-capsid of type 31; HPV31 pseudovirus
T2 sequence 1: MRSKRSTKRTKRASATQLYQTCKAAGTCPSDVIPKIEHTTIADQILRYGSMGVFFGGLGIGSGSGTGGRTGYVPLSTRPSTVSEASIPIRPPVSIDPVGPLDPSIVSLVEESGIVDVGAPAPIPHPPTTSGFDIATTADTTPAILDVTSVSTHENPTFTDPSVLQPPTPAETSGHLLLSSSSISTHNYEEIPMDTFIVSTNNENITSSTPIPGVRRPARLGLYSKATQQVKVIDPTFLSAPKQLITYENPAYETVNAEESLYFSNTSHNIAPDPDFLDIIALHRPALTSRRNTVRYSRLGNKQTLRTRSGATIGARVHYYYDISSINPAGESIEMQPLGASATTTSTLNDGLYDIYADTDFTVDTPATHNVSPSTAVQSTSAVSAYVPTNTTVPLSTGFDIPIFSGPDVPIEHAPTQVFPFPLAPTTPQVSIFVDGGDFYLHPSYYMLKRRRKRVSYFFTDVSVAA
T2 sequence 2: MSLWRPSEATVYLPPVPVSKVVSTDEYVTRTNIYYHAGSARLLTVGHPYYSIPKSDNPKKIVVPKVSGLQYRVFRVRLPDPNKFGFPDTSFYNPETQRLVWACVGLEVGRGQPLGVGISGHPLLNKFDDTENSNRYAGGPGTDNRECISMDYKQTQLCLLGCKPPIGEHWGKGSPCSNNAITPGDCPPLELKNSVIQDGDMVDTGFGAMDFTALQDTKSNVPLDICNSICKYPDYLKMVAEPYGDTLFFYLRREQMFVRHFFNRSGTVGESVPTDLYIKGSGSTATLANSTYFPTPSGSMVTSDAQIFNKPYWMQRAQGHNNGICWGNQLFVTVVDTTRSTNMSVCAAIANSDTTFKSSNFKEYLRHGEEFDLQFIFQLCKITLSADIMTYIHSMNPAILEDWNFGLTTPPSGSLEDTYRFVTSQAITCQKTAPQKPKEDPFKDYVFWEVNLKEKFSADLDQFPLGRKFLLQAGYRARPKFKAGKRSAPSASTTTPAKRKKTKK

HPV16 L1/L2-capsid = target: T3, HPV16 L1/L2-capsid (human papillomavirus type 16, UniProt P03107 1-473; P03101 1-505); assay: hybridoma screening ELISA on HPV16 L1/L2-capsid
T3 construct: Capsid of co-expressed L1 and L2; It was made in 293FT cells (Test Method 2) or in Sf9 insect cells with baculovirus (Test Method 3); The pseudovirus of Test Method 1 is the same capsid carrying a SEAP plasmid; also called L1/L2-capsid of type 16; HPV16 pseudovirus (PsV)
T3 sequence 1: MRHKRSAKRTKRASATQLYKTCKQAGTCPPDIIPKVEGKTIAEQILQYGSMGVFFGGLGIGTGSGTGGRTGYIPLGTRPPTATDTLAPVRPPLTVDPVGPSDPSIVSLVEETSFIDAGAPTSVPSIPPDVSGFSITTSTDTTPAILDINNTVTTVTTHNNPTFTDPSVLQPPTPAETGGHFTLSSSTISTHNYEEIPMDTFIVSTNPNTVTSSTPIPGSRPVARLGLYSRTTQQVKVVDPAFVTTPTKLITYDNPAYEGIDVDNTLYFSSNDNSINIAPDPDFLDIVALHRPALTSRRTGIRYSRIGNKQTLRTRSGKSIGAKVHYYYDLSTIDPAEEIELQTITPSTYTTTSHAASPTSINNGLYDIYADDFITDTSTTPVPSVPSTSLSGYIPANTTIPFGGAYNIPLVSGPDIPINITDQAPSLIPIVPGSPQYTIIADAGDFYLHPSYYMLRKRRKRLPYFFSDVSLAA
T3 sequence 2: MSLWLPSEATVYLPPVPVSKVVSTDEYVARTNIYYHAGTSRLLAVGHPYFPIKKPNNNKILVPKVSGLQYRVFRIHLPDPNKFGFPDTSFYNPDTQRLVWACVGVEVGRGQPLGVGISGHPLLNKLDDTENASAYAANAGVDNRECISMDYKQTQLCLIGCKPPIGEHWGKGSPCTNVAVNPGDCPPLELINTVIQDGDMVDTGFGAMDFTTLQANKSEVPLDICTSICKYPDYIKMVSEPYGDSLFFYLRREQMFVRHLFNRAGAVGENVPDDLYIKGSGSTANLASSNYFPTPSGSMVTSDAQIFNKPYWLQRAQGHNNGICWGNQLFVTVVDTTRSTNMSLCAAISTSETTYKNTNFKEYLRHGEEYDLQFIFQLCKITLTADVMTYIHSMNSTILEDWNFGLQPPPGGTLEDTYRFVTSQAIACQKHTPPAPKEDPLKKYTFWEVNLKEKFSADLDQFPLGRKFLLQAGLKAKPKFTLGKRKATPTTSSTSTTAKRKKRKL

Measured: binding result

B1: monoclonal antibody 13B (antibody, V domains shown)
VH: DVQLQESGPGLVKPSQSLSLSCTVTGYSITSDSAWNWIRQFPGNKLEWMGYITFSGSTNYNPSLKSRLSITRDTSKNQFFLQLNSVTTEDTATYYCTGPFLDYWGQGTTLTVSS
VL: DVVMTQTPLSLPVSLGDQATISCRSSLSLVLSNRITYLQWYLQKPGQSPKLLIYKVSNRFSGVPDRFSGSGSGTDFTLKISRVEAEDLGVYFCSQSSHFPWTFGGGTKLEIKR
notes: Used as mouse ascites or as antibody purified from ascites; also called Mouse-Mouse hybridoma 13B (FERM BP-11304)
binds: [1] | HPV31 L1/L2-capsid | HPV16 L1/L2-capsid

B2: monoclonal antibody 24B (antibody, V domains shown)
VH: EVQLQQSGTVLARPGASVKMSCKASVYSFPSNWMHWVKQRPGQGLEWIGAIYPGTGATRYNQKFKDKAKLTAVTSADTAYMELSSLTDEDSAVYYCTGYSLYWGQGTILTVSS
VL: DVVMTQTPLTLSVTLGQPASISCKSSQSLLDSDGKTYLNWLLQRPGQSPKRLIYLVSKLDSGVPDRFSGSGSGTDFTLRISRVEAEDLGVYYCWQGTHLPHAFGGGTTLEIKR
notes: Used as mouse ascites or as antibody purified from ascites; also called Mouse-Mouse hybridoma 24B (FERM BP-11305)
binds: [1] | HPV31 L1/L2-capsid | HPV16 L1/L2-capsid
